How the values were obtained:
[1] = target: T1, B7-H3 on surface of tumor cell (786-0, MDA-MB-231, Raji-B7-H3 cells) (human, UniProt Q5ZPR3 29-534); assay: FACS on 786-0 cells
T1 construct: whole, on cells; The making of Raji-B7-H3 cells is not described; also called B7-H3 on the surface of tumor cells; human B7-H3
T1 sequence (looked up): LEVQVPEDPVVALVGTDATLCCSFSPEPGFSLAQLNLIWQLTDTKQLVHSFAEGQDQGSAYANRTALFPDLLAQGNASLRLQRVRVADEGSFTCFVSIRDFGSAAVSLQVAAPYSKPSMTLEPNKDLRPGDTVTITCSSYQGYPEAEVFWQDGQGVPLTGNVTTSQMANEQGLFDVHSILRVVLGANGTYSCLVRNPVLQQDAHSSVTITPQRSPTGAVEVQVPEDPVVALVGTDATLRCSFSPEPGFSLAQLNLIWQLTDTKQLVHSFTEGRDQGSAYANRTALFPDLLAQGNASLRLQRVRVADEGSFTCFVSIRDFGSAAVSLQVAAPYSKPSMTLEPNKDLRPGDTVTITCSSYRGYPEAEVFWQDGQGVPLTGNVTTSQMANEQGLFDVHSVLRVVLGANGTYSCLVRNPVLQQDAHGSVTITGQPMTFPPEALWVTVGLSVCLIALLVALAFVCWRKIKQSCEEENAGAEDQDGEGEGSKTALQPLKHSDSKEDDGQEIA
Protocol: (§1) The binding activity of antibodies to B7-H3 on the surface of tumor cells was analyzed by FACS. Mean fluorescence intensity (MFI) and EC₅₀ detected by FACS indicate the binding activity of the antibody to cells. After 786-0 and MDA-MB-231 cells were digested, they were resuspended in 2% FBS-PBS solution and counted. After raji-B7-H3 cells were collected, they were resuspended in 2% FBS-PBS and counted. The above cells were plated in a cell plate with 1×10⁵ cells per well. The anti-B7-H3 antibody of the present disclosure was used as the primary antibody and added to cell plates in gradient dilution starting from 20 μg/mL with a total of 8 concentrations: 20,000 ng/mL, […], 2,000 ng/mL, 400 ng/mL, 80 ng/mL, 16 ng/mL, 3.2 ng/mL, and 0.64 ng/mL respectively. The plates were incubated at 4° C. for 1 h with hBRCA84D as the positive control antibody. PE-Anti-Human IgG (Biolegend, Cat. No. 409303, 1.25 μl/well) was used as the secondary antibody, washed, and detected for the fluorescence intensity generated by the binding of the antibody to the cell surface by a flow cytometer.

[2] = target: T1, B7-H3 on surface of tumor cell (786-0, …); assay: FACS on MDA-MB-231 cells
Protocol: as §1

[3] = target: T1, B7-H3 on surface of tumor cell (786-0, …); assay: FACS on Raji-B7-H3 cells
Protocol: as §1

[4] = target: T2, human 4Ig-B7-H3-His protein (human, UniProt Q5ZPR3 29-466); assay: Biacore X100 SPR, 4Ig-B7-H3-His coupled to CM5 chip, antibody injected
T2 construct: also called human B7-H3 protein
T2 sequence: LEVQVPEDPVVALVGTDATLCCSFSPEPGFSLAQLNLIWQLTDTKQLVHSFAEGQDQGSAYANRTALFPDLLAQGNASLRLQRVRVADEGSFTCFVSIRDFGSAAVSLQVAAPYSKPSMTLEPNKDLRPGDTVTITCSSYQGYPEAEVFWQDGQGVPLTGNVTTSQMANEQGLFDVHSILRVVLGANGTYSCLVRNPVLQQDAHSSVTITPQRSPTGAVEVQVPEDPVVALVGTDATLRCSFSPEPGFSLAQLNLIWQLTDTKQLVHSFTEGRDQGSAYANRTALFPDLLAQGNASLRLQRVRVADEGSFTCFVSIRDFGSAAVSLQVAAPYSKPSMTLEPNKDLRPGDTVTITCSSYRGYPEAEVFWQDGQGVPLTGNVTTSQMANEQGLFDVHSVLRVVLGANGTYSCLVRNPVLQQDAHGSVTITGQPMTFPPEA
From the text: The humanized anti-B7-H3 antibodies prepared in Example 4 were subjected to affinity assay by Biacore. The antigen 4Ig-B7-H3-His was first coupled to the surface of a CM5 chip (GE, Cat. No. BR100012), and the active groups of the uncoupled protein were blocked with ethanolamine. After the baseline was stable, the hu39-01, hu65-13, and hBRCA84D antibodies were respectively diluted in equal proportions. The diluted antibodies of each concentration were placed on the sample injection tray of the instrument in sequence, and the program was set to inject samples respectively.

[5] = target: T2, human 4Ig-B7-H3-His protein; assay: ELISA, plate coated with human 4Ig-B7-H3-His, detection with anti-human IgG HRP, OD450
Protocol: (§2) The binding activity of antibodies was analyzed by ELISA. 96-well ELISA plates were coated with human 4Ig-B7-H3-His protein or 2Ig-B7-H3-His protein (1 μg/well, prepared in Examples 1 and 2) and incubated overnight at 4° C. The plates were washed 3 times with 1×PBST and then blocked with 5% skim milk at 37° C. for 2 h. After washing 3 times with 1×PBST, the anti-B7-H3 antibody of the present disclosure was used as the primary antibody and added to the ELISA plates in 5-fold gradient dilution starting from 2 μg/mL with a total of 8 concentrations: 2,000 ng/mL, 400 ng/mL, 80 ng/mL, 16 ng/mL, 3.2 ng/mL, 0.64 ng/mL, 0.128 ng/mL and 0.0256 ng/mL respectively. The plates were incubated at 37° C. for 2 h with hBRCA84D as the positive control antibody. After washing 5 times with 1×PBST, Anti-Human IgG HRP (Jackson, 109-035-003, 1:5000) was used as the secondary antibody and incubated at 37° C. for 1 h. After washing 5 times with 1×PBST, color developing solution TMB was added to the plate, and microplate reader (Thermo, Multiskan FC) was used to read OD450 value after termination of the reaction. EC₅₀ was generated by GraphPad.

[6] = target: T3, human 2Ig-B7-H3-His protein (human, UniProt Q5ZPR3 29-463); assay: ELISA, plate coated with human 2Ig-B7-H3-His, detection with anti-human IgG HRP, OD450
T3 sequence: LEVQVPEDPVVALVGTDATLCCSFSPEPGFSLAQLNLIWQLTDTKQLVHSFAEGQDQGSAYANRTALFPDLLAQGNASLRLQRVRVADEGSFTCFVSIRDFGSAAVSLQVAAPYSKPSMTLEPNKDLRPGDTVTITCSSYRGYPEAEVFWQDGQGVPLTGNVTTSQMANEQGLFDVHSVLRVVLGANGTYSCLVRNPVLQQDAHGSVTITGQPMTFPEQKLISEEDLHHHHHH
Protocol: as §2

[7] = target: T4, Cynomolgus B7-H3-His (Sino Biological, Cat. No. 90806-C08H) (cynomolgus monkey); assay: ELISA, plate coated with cynomolgus B7-H3-His, detection with anti-human IgG HRP, OD450
T4 construct: Bought reagent; also called cynomolgus monkey B7-H3; monkey B7-H3
Protocol: The binding activity of antibodies was analyzed by protein based ELISA. Cynomolgus B7-H3-His (0.5 μg/well, Sino Biological, Cat. No. 90806-C08H) was coated on 96-well ELISA plates. The anti-B7-H3 antibodies of the present disclosure was used as the primary antibody and added to the ELISA plates in 5-fold gradient dilution starting from 2 μg/mL with a total of 8 concentrations: 2,000 ng/mL, 400 ng/mL, 80 ng/mL, 16 ng/mL, 3.2 ng/mL, 0.64 ng/mL, 0.128 ng/mL, and 0.0256 ng/mL respectively. The plates were incubated at 37° C. for 2 h with AB06.12-4P as the positive control antibody. Anti-Human IgG HRP (Jackson, 109-035-003, 1:10,000) was used as the secondary antibody. Color developing solution TMB (3,3′,5,5′-tetramethylbenzidine) was added to the plate, and microplate reader (Thermo, Multiskan FC) was used to read OD450 value after termination of the reaction. EC₅₀ was generated by GraphPad.

B1: hu51-G34K-12 (antibody, human IgG1, V domains shown)
VH: EVQLVESGGGLVKPGGSLRLSCAASGFTFSSFGMSWVRQAPGKGLEWVATINSGDNYSYSPDSVKGRFTISRDNAKNSLYLQMNSLRAEDTAVYYCARPHIFYYGSPAWFAYWGQGTLVTVSS
VL: DVVMTQSPLSLPVTLGQPASISCRSRQSLVHSNKNTYLHWFQQRPGQSPRLLIYKVSNRFSGVPDRFSGSGSGTDFTLKISRVEAEDVGVYYCSQSTHVPLTFGGGTKVEIK
notes: expressed in HEK293E; also called humanized anti-B7-H3 antibody hu51-G34K-12
[1]
  EC50: 0.12 µg/mL
  Mean fluorescence intensity (MFI): 584000
[2]
  EC50: 0.0501 µg/mL
  Mean fluorescence intensity (MFI): 156000
[3]
  EC50: 0.12 µg/mL
  Mean fluorescence intensity (MFI): 584000
[4]
  Kd: 0.49 nM
  koff: 0.000385 s⁻¹
  kon: 785000 M⁻¹ s⁻¹
[5]
  EC50 (read off the curve): ~0.005 µg/mL
[6]
  EC50 (read off the curve): ~0.005 µg/mL
[7]
  EC50 (read off the curve): ~0.006 µg/mL
